Assay: yeast display, Sf9 membrane polyspecificity reagent, FACS + sequencing; frameworks hold sequencing errors
In short: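 A nanobody's polyreactivity label depends on the gate it was sorted from. Yeast display cells were stained with 10% biotinylated, detergent-solubilized Sf9 membrane reagent for 1 hour at 4 °C, enriched on streptavidin microbeads and sorted by FACS. The low and high (top ~1%) gates were set on anti-HA fluorescence for expression and streptavidin fluorescence for reagent binding.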

QVQLVESGGGLVQAGGSLRLSCAASGRIFYAYAMGWYRQAPGKERELVATITGIGGSTYADSVKGRFTISRDNAKNTVNLQMNSLKPEDTAVYYCNAERGVYWGRYPYKYDYWGQGTQVTVSS
polyreactivity (PSR sort gate): low polyreactivity

QFQLVESGGGLVQAGGSLRLSCAASGRIFGRYSRGLYRQAPGKERELVAAITWLGTTYYADSVKGRFTISRDNAKNTVYLQMNSLKPEDTAVYYCATVVLLRIWGGYWGQGTQVTVSS
polyreactivity (PSR sort gate): high polyreactivity

QVQLVESGGGLVQAGGSLRVSCAASGSTLGRNTMGWYRQAPGKVRELVAAITITDSTNYADSVKGRFTISRDNAKNTVYLQMNSLKPEDTAVYYGAKRRYYSTPRWGSSTYDYWGLGTQVTVSS
polyreactivity (PSR sort gate): low polyreactivity

QVQLVESAGGLVQAGVSLRLSCAASGFTSSRNAMGWYRQAPGKERELVATISSGGDTYYADSVKGRFTISRDNAKNTVYLQMNTLKPEDTAVYYCNKDPLYAWGYDYWGQGTQVTVSS
polyreactivity (PSR sort gate): low polyreactivity

QVQLVESGGGLVQAGGSLRLSCAASGRIFVRNAMGWYRQAPGKEREFVAAISRSGGSTYYADSVKGRFTISRDNAKNTVYLQMNSLKPEDTAVYYCAADYPKTYTSKFNYWGQGTQVTVSS
polyreactivity (PSR sort gate): high polyreactivity

QVQLVESGGGLVQEGGSLRLSCAASGRIFYNYPMGWYRQAPGKEREFVAAISGSGGSTYYADSVKGRFTISRDIAKNTVYLQMKSLKPEDTAVYYCSTSGPQYYSRNFDYWGQGTQVTVSS
polyreactivity (PSR sort gate): low polyreactivity

QVQLVESGGGLVQAGGSLRLSCAASGSIFYGYAMGWYSQAPGKERELVAAISSSGGSTYYADSVKGRFTISRDNAKNTVYLQMNSLKTEDTAVDYCAADWDFVNGWFNYWGKGTQVTVSS
polyreactivity (PSR sort gate): high polyreactivity

QVQLVESGGGLVQAGGSLRLSCAASGFTFYYNAMGGYRQAPGKEREFVAGITRTGGSTYYADSVKGRFTISRDNAMNTVYLQIKSLKPEDTAVYYCAATHYYYGTSRYDYWGQVTQVTVSS
polyreactivity (PSR sort gate): high polyreactivity

QVQLVDSGGGLVQAGGSLRLSCAASGSIFGYYTMGWYRQAPGKERELVAAITSGGSTKYADSVKGRITISRDNAKNTVYLQMNCLKPEDTAVYYCAKVSYYPWRYDYWGPGTQVTVSS
polyreactivity (PSR sort gate): low polyreactivity

QVQLVESGGGLVQAGGSLRLRCAASGSIITRYAMGWYRQAPGKERDLVAAITASGGRTYYADSVKGRFTISRDNAKNTVYFQMNSLKPEDTAVYYCNTFWRYTSQLPYDYWGQGTQVNVSS
polyreactivity (PSR sort gate): high polyreactivity

QVQLVDSGGGLVQAGASLRLSCAASGIIFTGYAKGWYRQAPGKERDLVAAISGIGTSTYYADSVKGRFTISRDNAKNTVYLQMNSLKPEDTAVYYCAARYVSRRFLGYYYWGQGTQVTVSS
polyreactivity (PSR sort gate): high polyreactivity

QVQLVESGGGLVQAGGSLRLSCAASGSTSDDNTMGWYRQAPGKERELVAAITWSGGRTSYADSVKGRFTISRDNAKNTVYLQMNSLKPEDTAVYYCAADKSGRGLDYWGQGTQVTVSS
polyreactivity (PSR sort gate): low polyreactivity

QVQLVESGGGLVQAGGSLRLSCAASGSTSRHNTMGWYRQPPGKERELVAAISGGGTTYYADSVKGRFTISRDNAKNTVYLQMNSLKPEDTAVYYCAAAFWGDYASSYRSGLDYWGQGTQVTVSS
polyreactivity (PSR sort gate): low polyreactivity

QVLLVESGGGLVQAGGSLRLSCAASGSTLYDYAMGWYRQAPGKETELVAAINGSGGSTYYADSVKGRFTISRDNAKNTVYLQMNSLKPEDTAVYYCNAKRYGFFYWQGDYCGQGTQVTVSS
polyreactivity (PSR sort gate): low polyreactivity

QVQLVESGGGLVQAGGSLRLSCAASGSTFGYYTMGRYRQAPGKERELVAAITWSGGTTYYAESVKGRFTISRDNAKNPVYLQMNSLKPEDTAVYYCATRPWYYASPRTRFGSWGQGTQVTVSS
polyreactivity (PSR sort gate): high polyreactivity

QVQLVESGGGLVQAGGSLRLSCAASGIIFKYNVMGWYRQAPGKERELVAAITDSGTSTFYADSVKGRFTISRDNAKNTVYLQMNSLKPEDTAVYYCAADEFSVFTIETYGYDYWGQGTQVTVSS
polyreactivity (PSR sort gate): low polyreactivity

QVQLVESGGGLVQAGGSLRLSCAASGSIFKIYAMGWYRQAPGKERELVASITGSGGSTYYADSVKGRFTISRDNAKNTVYLQMNSLKPEDTAVYYCIADGPLDRYEYWGQGTQVTVSS
polyreactivity (PSR sort gate): low polyreactivity

QVQLVESGGGLVQAGGSLRLSCAASGSTFPYAMGWYTQAPGKEREFVAAITRSGGSTYYADSVKGRFTISRDNAKNTVYLQMNSLKPEDTAVYYATQRCVWGYHYWGQGTQVTVSS
polyreactivity (PSR sort gate): high polyreactivity

QVQLVESGGGLVQAGGSLRLSCAASGRTFSRYAMGWYRQAPGKERELVAAITYSGGRTYYADSVKGRFTISRDNAKNTVYLQMNSLKPEDTAVYYCAKGTTSDPGYGYWGQGTQVTVSS
polyreactivity (PSR sort gate): low polyreactivity

QVQLVESGGGLGQAGGSLRLSCAASGSTFYRFTRGWYRQAPGKERELVASIRWTGGRTNYADSVKGRFTISRDNAKNTVYLQMNSLKPEDTAVYYCAAYLKYPYGASYGSWGQGTQVTVSS
polyreactivity (PSR sort gate): high polyreactivity

QVQLVESGGGLVQAVGSLRLSCAASGSTFAYYAMGWYRQAPGKEREFVAAISTRGGSTYYADSVKGRFTISRDNAKNTVYLQLISLKQEDTAFYYCAAGYFIYSWRIRFDHWGQGTQVTVSS
polyreactivity (PSR sort gate): high polyreactivity

QVQLVESGGGLVQAGGSLRLSCAASGFIFRVYAMGWYRQAPGKERELVAAISDSGGSTTYADSVKGRFTISRDNAKNTVYLQMNSLKPEDTAVYYCAADYDFFSLYLYDYWGQGTQVTVSS
polyreactivity (PSR sort gate): low polyreactivity

QVQLVESGGGLVQAGGSLRLSCAASGSTFYTYTMGWYRQAPGKERELVAAITWSGGSTYYADSVKGRFTISRDNAKNTVYLQMNSLKPEDTAVYYCNADQDYQGARPSGMDYWGQGTQVTVSS
polyreactivity (PSR sort gate): low polyreactivity

QVQLVESGGCLVQAGGSLRLSCAASGSIFDRYAMGWYRQAPGKERGLVAAISSSGGSTYYADSVKGRFTISRDNAKNTVYLQMNSLKPEDTAVYYCAAEYYASPYYWSYDYWGQGTQVTVSS
polyreactivity (PSR sort gate): high polyreactivity

QVQLVESGGGLVQAGGSLSLSCAASGYTFLRYAMGWYRQAPGQERELVATISRSGGRTYYADSVKGRFTISRDNAKNTVYLLMNSLKPEDTSVYYCNAEAIVVNGGGYWGQGTQVTVSS
polyreactivity (PSR sort gate): high polyreactivity

QVQLVESGGGLVQAGGSLRLSCAASGGIFGRYDMGWYRQAPGKERELVAAISKRGGSTYYADSVKGRFTISRDNAKNTVYLQMNSLKPEDTAVYYCNAAQSVELGYDYWGQGTQGTVSS
polyreactivity (PSR sort gate): high polyreactivity

QDQHVESGGGLVQAGGSLRLICAASGSIFIANAMGWYRQAPGKERELVAAITLNGGSTYYADSVKGRFTISRDNAKNTVYLQMNSLKPEDTAVYYCAADWVWVAPQYWFVEYDYWGQGTQVTVSS
polyreactivity (PSR sort gate): low polyreactivity

QVQLVESGGGLVQAGGSLRLSCAASGRIFVGYAMGWSRQAPGKERELVASITRSAGRTFYADSVKGRFTISRDNAKNTVYLQMNSLKPEDTAVYYCNARYWKGYNGYLRSTRRDDYWGQGTQVTVSS
polyreactivity (PSR sort gate): high polyreactivity

QVQLVESGGGLVQEGGSLRLICAASGGIFIYNAMGWYRQEPGKEREFVAAINISGGNTYYADSVKGRFTISRDNAKNTVYLQMNSLKPEDTAVYYCAARYASSWWIRYYYWGQGTQVSVSS
polyreactivity (PSR sort gate): high polyreactivity

QVQLVESGGGLVQAGGSLRLSCAASGRIFVYNAMGSYRQAPGKERELVAAINSGTITNSADSVKGRFTISRDNGKNTVYLQMNSRIPEDTAVSYCAAPWYPSTDYNYWGQGTQVTVSS
polyreactivity (PSR sort gate): low polyreactivity

QVQLVESGGGLVQAGGSLRLSCAASGRIFGWYAMGWYRQAPGNERELVAAINRGGSTNYADSVKGRFTISRDNAKNTVYLQMNSLKPEDTAVYYCAVRGVHYTAVTNIKYGYGYWGQGTQVTVSS
polyreactivity (PSR sort gate): high polyreactivity
